Measured values as given in patent publication US20220332804A1 (CSL INNOVATION, published 2022).

Key:
Assay in all cases: SPR, KD relative to WT C2;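 further: biacore SPR at 37 °C, anti-C2 mAbs captured via immobilised goat anti-human IgG, C2 alanine or serine surface mutants as analytes, 1:1 model fitted, double-referenced sensograms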
human C2 N327A = biological target: T1, human C2 N327A (human, UniProt P06681 21-752)
T1 sequence: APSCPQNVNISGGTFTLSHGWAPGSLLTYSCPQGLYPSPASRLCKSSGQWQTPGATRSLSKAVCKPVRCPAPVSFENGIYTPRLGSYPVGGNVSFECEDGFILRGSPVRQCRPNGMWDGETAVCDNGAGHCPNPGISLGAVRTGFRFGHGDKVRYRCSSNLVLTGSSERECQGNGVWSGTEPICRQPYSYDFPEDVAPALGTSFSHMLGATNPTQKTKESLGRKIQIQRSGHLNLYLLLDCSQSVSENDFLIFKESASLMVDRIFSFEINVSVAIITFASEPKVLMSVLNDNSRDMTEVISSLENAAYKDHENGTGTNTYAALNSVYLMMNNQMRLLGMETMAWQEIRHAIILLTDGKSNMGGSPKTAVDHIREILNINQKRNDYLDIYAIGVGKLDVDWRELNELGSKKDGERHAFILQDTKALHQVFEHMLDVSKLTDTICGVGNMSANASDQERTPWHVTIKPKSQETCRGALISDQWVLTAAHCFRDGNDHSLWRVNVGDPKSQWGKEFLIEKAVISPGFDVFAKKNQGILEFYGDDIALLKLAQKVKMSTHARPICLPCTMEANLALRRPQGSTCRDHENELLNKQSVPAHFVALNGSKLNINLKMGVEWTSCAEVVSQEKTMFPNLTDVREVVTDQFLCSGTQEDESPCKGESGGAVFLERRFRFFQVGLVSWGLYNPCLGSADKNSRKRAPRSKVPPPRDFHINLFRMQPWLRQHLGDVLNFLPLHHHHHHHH

human C2 T442A = biological target: T2, human C2 T442A (human, UniProt P06681 21-752)
T2 sequence: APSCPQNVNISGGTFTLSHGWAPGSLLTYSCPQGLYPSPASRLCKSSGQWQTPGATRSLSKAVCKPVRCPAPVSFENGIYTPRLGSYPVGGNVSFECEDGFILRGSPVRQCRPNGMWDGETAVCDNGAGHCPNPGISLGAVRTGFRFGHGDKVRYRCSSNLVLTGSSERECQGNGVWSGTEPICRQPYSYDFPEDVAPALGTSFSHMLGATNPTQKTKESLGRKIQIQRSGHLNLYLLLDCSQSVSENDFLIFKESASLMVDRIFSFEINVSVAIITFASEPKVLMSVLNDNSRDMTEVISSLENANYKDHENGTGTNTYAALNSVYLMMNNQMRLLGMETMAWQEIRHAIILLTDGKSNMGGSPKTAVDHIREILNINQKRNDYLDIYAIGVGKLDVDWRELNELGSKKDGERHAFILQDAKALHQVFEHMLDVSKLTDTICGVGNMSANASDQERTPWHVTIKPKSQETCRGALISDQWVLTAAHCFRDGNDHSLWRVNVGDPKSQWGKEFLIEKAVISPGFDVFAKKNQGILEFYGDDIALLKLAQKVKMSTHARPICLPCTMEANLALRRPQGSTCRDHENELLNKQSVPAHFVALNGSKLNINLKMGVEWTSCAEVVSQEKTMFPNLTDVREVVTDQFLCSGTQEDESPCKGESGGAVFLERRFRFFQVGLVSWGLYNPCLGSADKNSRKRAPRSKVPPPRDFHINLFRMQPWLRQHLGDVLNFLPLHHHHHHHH

human C2 N268A = biological target: T3, human C2 N268A (human, UniProt P06681 21-752)
T3 sequence: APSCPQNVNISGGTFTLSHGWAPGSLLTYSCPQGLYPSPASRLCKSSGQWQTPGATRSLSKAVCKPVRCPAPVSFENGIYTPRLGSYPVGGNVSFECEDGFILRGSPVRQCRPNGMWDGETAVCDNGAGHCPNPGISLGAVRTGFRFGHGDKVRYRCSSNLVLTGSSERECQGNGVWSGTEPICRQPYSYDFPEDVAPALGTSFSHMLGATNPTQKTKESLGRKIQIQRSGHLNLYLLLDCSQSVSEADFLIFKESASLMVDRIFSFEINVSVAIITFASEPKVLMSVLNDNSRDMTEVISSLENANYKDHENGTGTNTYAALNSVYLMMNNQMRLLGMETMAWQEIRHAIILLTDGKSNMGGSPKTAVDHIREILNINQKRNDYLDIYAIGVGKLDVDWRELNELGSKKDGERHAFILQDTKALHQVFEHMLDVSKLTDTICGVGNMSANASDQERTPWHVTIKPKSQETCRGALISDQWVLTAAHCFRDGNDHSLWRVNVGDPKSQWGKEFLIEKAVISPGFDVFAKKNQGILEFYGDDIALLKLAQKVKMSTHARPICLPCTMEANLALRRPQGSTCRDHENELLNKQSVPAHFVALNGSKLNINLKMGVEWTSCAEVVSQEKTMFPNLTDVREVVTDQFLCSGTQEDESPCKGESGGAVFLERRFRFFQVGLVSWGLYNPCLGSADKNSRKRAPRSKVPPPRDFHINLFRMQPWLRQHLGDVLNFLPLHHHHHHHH

human C2 L620A = biological target: T4, human C2 L620A (human, UniProt P06681 21-752)
T4 sequence: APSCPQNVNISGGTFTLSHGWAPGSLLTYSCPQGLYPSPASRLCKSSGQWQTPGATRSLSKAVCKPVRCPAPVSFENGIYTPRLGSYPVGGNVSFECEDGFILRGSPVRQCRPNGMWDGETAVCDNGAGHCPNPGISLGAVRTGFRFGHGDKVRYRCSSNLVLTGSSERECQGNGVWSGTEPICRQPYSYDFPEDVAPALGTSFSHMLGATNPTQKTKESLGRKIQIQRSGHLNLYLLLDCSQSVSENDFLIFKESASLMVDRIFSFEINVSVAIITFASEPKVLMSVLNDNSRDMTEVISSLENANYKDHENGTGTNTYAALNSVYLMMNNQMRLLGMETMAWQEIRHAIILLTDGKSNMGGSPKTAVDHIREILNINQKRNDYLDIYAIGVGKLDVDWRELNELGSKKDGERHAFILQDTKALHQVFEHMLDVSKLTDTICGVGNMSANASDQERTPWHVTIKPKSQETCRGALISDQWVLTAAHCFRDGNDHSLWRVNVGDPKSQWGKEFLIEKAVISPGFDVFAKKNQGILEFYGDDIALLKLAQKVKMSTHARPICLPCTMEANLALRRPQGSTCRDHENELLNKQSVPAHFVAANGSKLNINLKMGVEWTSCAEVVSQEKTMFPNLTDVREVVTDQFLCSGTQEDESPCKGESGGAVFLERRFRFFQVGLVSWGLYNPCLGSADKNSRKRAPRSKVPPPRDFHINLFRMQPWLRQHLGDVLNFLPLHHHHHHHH

B1: RF16-226 (antibody, human IgG4 S228P, lambda)
heavy: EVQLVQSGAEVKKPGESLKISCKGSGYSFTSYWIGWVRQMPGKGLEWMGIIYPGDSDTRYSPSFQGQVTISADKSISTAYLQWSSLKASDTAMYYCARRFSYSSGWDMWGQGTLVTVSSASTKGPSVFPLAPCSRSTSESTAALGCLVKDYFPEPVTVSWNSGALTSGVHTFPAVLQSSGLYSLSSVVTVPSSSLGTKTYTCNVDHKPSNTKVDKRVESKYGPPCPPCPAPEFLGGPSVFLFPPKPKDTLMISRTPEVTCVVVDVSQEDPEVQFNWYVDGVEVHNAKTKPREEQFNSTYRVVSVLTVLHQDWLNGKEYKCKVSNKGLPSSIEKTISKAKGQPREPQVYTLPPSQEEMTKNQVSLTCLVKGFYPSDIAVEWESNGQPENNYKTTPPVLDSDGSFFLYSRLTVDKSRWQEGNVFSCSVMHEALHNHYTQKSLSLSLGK
light: SYELTQPPSVSVSPGQTARITCSGDALTSKYVAWYQQKSGLAPLLVIYEDTRRPSGIPAKFSGSSSGSVATLTISGAHGDDEADYYCYSTDASGHQRVFGGGTKLTVLSQPKAAPSVTLFPPSSEELQANKATLVCLISDFYPGAVTVAWKADGSPVKAGVETTKPSKQSNNKYAASSYLSLTPEQWKSHRSYSCQVTHEGSTVEKTVAPTECS
notes: pH-dependent anti-C2 antibody from a phage display library; also called WT
How did the Fold diff (human C2 N327A) turn out when B1 was run?
Its Fold diff is 7 fold.

And the Fold diff (human C2 T442A)?
The Fold diff was 2 fold.

And the Fold diff (human C2 N268A)?
The Fold diff was 1 fold.

And the Fold diff (human C2 L620A)?
The Fold diff was 1 fold.
